The text below walks through data of paper PMC2706296 (Nature structural & molecular biology, 2009).

The target of assay [1] is T1, Nup85 C-terminally tagged with a tandem affinity purification (TAP) tag (budding yeast (endogenous), UniProt P46673 1-744).
T1 sequence (looked up): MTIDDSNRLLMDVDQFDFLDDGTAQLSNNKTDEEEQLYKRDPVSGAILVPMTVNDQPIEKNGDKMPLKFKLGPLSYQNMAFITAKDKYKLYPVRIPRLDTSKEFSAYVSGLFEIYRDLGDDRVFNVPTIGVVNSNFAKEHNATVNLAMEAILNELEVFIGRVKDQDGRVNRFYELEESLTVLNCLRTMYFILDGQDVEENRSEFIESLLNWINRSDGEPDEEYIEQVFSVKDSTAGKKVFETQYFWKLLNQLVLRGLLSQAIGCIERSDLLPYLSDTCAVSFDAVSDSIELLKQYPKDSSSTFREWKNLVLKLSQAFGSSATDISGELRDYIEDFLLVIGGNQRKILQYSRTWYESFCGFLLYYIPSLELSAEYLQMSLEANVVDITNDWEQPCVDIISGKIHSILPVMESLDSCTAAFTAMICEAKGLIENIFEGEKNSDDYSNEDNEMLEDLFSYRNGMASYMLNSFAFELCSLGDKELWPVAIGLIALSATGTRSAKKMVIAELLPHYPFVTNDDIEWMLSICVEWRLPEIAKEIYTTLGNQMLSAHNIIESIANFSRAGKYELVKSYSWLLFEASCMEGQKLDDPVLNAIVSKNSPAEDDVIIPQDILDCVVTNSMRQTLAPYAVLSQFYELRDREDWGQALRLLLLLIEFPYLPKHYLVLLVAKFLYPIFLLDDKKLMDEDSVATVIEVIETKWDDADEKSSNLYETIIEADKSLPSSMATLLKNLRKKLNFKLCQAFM
Briefly: affinity purification with mass spectrometry.

The target in the next assay is Nup84 (budding yeast (endogenous), UniProt P52891 1-726). Briefly: negative-stain EM, random conical tilt 3D reconstruction.
Sequence of Nup84 (P52891 whole entry): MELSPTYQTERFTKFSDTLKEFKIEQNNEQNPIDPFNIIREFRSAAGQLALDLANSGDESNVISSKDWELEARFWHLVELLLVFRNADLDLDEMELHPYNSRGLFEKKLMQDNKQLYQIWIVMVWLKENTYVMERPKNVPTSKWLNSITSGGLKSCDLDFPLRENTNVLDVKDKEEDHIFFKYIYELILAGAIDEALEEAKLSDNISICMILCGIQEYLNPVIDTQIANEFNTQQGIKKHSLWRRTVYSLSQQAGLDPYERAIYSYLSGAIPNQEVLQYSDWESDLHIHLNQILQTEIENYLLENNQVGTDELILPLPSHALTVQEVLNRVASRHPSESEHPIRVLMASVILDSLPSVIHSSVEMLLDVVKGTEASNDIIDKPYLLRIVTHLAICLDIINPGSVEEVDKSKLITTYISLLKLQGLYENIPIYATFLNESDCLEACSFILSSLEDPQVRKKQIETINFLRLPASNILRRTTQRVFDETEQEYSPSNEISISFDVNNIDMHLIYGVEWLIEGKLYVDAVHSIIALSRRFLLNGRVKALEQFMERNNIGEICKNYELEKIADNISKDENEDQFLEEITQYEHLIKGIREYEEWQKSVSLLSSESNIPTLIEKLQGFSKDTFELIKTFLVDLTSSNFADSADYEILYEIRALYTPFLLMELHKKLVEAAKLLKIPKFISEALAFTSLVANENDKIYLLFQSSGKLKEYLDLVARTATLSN

B1: Seh1 (natural protein, budding yeast (endogenous), UniProt P53011 1-349, looked up)
chain: MQPFDSGHDDLVHDVVYDFYGRHVATCSSDQHIKVFKLDKDTSNWELSDSWRAHDSSIVAIDWASPEYGRIIASASYDKTVKLWEEDPDQEECSGRRWNKLCTLNDSKGSLYSVKFAPAHLGLKLACLGNDGILRLYDALEPSDLRSWTLTSEMKVLSIPPANHLQSDFCLSWCPSRFSPEKLAVSALEQAIIYQRGKDGKLHVAAKLPGHKSLIRSISWAPSIGRWYQLIATGCKDGRIRIFKITEKLSPLASEESLTNSNMFDNSADVDMDAQGRSDSNTEEKAELQSNLQVELLSEHDDHNGEVWSVSWNLTGTILSSAGDDGKVRLWKATYSNEFKCMSVITAQQ
As for B1, the binding result in assay [1] is recorded as “binds”.

B2: Nup145C (natural protein, budding yeast (endogenous), UniProt P49687 606-1317, looked up)
chain: SIWGLVNEEDAEIDEDDLSKQEDGGEQPLRKVRTLAQSKPSDKEVILKTDGTFGTLSGKDDSIVEEKAYEPDLSDADFEGIEASPKLDVSKDWVEQLILAGSSLRSVFATSKEFDGPCQNEIDLLFSECNDEIDNAKLIMKERRFTASYTFAKFSTGSMLLTKDIVGKSGVSIKRLPTELQRKFLFDDVYLDKEIEKVTIEARKSNPYPQISESSLLFKDALDYMEKTSSDYNLWKLSSILFDPVSYPYKTDNDQVKMALLKKERHCRLTSWIVSQIGPEIEEKIRNSSNEIEQIFLYLLLNDVVRASKLAIESKNGHLSVLISYLGSNDPRIRDLAELQLQKWSTGGCSIDKNISKIYKLLSGSPFEGLFSLKELESEFSWLCLLNLTLCYGQIDEYSLESLVQSHLDKFSLPYDDPIGVIFQLYAANENTEKLYKEVRQRTNALDVQFCWYLIQTLRFNGTRVFSKETSDEATFAFAAQLEFAQLHGHSLFVSCFLNDDKAAEDTIKRLVMREITLLRASTNDHILNRLKIPSQLIFNAQALKDRYEGNYLSEVQNLLLGSSYDLAEMAIVTSLGPRLLLSNNPVQNNELKTLREILNEFPDSERDKWSVSINVFEVYLKLVLDNVETQETIDSLISGMKIFYDQYKHCREVAACCNVMSQEIVSKILEKNNPSIGDSKAKLLELPLGQPEKAYLRGEFAQDLMKCTYKI
As to B2, in the assay with Nup84, the binding result is “binds”.
